Values of other authors, collected in paper PMC3292877.

Target: ERK2 (Rattus norvegicus) (UniProt P63086)

ERK2 (from UniProt P63086)
Kd: 7 nM
